The labels stand for the following.
B1: 3-102 (antibody)
heavy: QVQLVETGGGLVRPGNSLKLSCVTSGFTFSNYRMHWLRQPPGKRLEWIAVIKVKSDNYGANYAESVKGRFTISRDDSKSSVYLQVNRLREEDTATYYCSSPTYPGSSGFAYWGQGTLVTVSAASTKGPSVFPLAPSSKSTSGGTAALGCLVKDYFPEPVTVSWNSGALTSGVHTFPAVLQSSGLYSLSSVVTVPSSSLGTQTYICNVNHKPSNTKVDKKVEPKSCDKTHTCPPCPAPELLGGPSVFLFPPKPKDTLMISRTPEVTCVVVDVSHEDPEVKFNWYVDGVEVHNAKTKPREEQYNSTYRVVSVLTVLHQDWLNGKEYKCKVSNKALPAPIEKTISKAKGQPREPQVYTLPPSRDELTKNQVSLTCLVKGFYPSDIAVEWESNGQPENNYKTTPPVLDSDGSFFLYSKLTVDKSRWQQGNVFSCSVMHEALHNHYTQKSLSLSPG
light: DIQMTQTTSSLSASLGDRVTISCRASQDISNYLNWYQQKPDGTVKLLIYYTSRLHSGVPSRFSGSGSGTDYSLTISNLEQEDIATYFCQQGNKFPPTFGGGTKLEINRTVAAPSVFIFPPSDEQLKSGTASVVCLLNNFYPREAKVQWKVDNALQSGNSQESVTEQDSKDSTYSLSSTLTLSKADYEKHKVYACEVTHQGLSSPVTKSFNRGEC
B2: 3-105 (antibody)
heavy: QVQLVETGGGLVRPGNSLKLSCVTSGFTFSNYRMHWLRQPPGKRLEWIAVIKVKSDNYGANYAESVKGRFTISRDDSKSSVYLQVNRLREEDTATYYCSSPTYPGSSGFAYWGQGTLVTVSAASTKGPSVFPLAPSSKSTSGGTAALGCLVKDYFPEPVTVSWNSGALTSGVHTFPAVLQSSGLYSLSSVVTVPSSSLGTQTYICNVNHKPSNTKVDKKVEPKSCDKTHTCPPCPAPELLGGPDVFLFPPKPKDTLMISRTPEVTCVVVDVSHEDPEVKFNWYVDGVEVHNAKTKPREEQYNSTYRVVSVLTVLHQDWLNGKEYKCKVSNKALPLPEEKTISKAKGQPREPQVYTLPPSRDELTKNQVSLTCLVKGFYPSDIAVEWESNGQPENNYKTTPPVLDSDGSFFLYSKLTVDKSRWQQGNVFSCSVMHEALHNHYTQKSLSLSPG
light: B1 light
B3: 3-90 (antibody)
heavy: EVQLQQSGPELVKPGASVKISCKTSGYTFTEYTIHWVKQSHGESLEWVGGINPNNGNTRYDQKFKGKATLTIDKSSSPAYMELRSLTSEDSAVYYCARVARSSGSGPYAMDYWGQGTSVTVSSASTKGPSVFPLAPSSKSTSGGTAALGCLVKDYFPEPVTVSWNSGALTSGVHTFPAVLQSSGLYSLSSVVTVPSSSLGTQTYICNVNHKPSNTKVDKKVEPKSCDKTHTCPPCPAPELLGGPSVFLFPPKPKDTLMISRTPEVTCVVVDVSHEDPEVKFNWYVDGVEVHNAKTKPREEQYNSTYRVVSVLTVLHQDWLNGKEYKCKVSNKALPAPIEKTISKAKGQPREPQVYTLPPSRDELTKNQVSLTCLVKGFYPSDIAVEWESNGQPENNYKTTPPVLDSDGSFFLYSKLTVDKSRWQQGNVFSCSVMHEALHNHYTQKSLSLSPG
light: DVVMTQTPLSLPVSLGDQASISCRCTQSLLHTNGDTYLHWYLQKPGQSPKLLIYKVSNRFSGVPDRFSGSGSGTDFTLKISRVEAEDLGVYFCSQSTHVPYTFGGGTKLEIKRTVAAPSVFIFPPSDEQLKSGTASVVCLLNNFYPREAKVQWKVDNALQSGNSQESVTEQDSKDSTYSLSSTLTLSKADYEKHKVYACEVTHQGLSSPVTKSFNRGEC
B4: 3-91 (antibody)
heavy: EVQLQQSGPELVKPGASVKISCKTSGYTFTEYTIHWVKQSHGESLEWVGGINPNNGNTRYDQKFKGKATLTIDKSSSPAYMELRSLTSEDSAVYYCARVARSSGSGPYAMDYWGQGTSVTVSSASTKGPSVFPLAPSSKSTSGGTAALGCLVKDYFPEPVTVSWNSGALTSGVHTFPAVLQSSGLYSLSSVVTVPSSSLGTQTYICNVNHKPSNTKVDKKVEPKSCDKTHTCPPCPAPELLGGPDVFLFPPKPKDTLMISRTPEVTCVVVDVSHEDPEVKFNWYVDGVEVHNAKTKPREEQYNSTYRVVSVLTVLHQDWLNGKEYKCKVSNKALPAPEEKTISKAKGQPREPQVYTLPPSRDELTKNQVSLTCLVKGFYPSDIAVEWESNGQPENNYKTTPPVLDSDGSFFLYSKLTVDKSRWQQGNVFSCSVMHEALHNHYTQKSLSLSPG
light: B3 light
B5: 3-92 (antibody)
heavy: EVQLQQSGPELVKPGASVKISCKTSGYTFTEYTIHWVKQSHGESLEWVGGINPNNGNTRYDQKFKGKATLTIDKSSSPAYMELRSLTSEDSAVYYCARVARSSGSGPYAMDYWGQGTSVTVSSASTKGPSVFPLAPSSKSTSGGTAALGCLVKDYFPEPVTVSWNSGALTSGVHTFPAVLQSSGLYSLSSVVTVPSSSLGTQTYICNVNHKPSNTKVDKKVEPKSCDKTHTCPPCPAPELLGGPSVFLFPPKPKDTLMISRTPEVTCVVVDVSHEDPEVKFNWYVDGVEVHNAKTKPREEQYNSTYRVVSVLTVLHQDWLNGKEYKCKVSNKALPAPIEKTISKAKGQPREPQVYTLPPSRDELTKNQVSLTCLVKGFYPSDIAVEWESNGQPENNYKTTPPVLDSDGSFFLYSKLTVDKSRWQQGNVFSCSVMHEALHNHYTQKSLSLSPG
light: B3 light
B6: 3-49 (antibody, V domains shown)
VH: EVQLQQSGPELVKPGASVKISCKTSGYTFTEYTMHWVKQSHGKSLEWIGGINPNNGDTNYNQKFMGKATLTVDKSSSTAYMELRSLTSEDSAVYYCVRRLLRRGAMDYWGQGTSVTVSS
VL: DIVLTQSPASLAVSLGQRATISCRASENVEYYGTSLMQWFQQKPGQPPKLLIYAASNVDSGVPARFSGSGSGTDFSLNIHPVEEDDIAMYFCQQSRKVPWTFGGGTKLDIK
B7: 3-45 (antibody, V domains shown)
VH: EVQLVETGGGLVQPKGSLKLSCAASGFTFNANAMNWVRQAPGKGLEWVARIRSKSNNYATYYADSVKDRFTISRDDSQSMLYLQMNNLKTEDTAMYYCVRGSDNYIFYAMDYWGQGTSVTVSS
VL: DIVMTQAAPSVPVTPGESVSISCRSSKSLLHSNGNTYLYWFLQRPGQSPQLLIYRMSNLASGVPDRFSGSGSGTAFTLRISRVEAEDVGVYYCMQHLEYPFTFGGGTKLEIK
B8: 3-48 (antibody, V domains shown)
VH: QVQLVETGGGLVRPGNSLKLSCVTSGFTFSNYRMHWLRQPPGKRLEWIAVIKVKSDNYGANYAESVKGRFTISRDDSKSSVYLQVNRLREEDTATYYCSSPTYPGSSGFAYWGQGTLVTVSA
VL: DIQMTQTTSSLSASLGDRVTISCRASQDISNYLNWYQQKPDGTVKLLIYYTSRLHSGVPSRFSGSGSGTDYSLTISNLEQEDIATYFCQQGNKFPPTFGGGTKLEIN

The values that follow come from US20260234276A1 (DOMAIN THERAPEUTICS, published 2026).

Several values for one entry are separate records, joined by “and”; a condition that tells them apart may be missing. Equal values may be shown once.

Chain of pm6 (human, sulfated tyrosines at Y16 and Y17) (peptide, as listed by the source): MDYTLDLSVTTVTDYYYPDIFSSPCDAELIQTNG
Chain of pm8 (human, sulfated tyrosines at Y15, Y16 and Y17) (peptide, as listed by the source): as above
Chain of pm5 (human, sulfated tyrosines at Y15 and Y17) (peptide, as listed by the source): as above

The target in one experiment is T1, human CCR8 (human, UniProt P51685 1-355). Kind of experiment: cell-based or functional assay.
B1: the “ADCC % Max lysis, NK cells Donor 3” value was 16%; the “ADCC % Max lysis, NK cells Donor 4” value worked out at 18%; the “ADCC EC50, NK cells Donor 3” value turned out to be 0.291 nM; the “ADCC EC50, NK cells Donor 4” value was found to be 0.406 nM.
In the case of B2, the “ADCC % Max lysis, NK cells Donor 3” value was found to be 25%; the “ADCC % Max lysis, NK cells Donor 4” value came out at 30%; the “ADCC EC50, NK cells Donor 3” value turned out to be 0.00822 nM; the “ADCC EC50, NK cells Donor 4” value was 0.0489 nM.
On to B3, for which the “ADCC % Max lysis, NK cells Donor 3” value was 14%; the “ADCC % Max lysis, NK cells Donor 4” value was determined as 15%; the “ADCC EC50, NK cells Donor 3” value is 0.793 nM; the “ADCC EC50, NK cells Donor 4” value was found to be 1.52 nM.
For B4, in that order: 25%, 28%, 0.218 nM and 0.053 nM.
Regarding B5, the “ADCC % Max lysis, NK cells Donor 3” value came out at 29%; the “ADCC % Max lysis, NK cells Donor 4” value was found to be 29%; the “ADCC EC50, NK cells Donor 3” value amounted to 0.195 nM; the “ADCC EC50, NK cells Donor 4” value amounted to 0.282 nM.

The next experiment deals with T1, human CCR8. Kind of experiment: cell-based or functional assay. The source holds these as a separate data set.
Take B6: the “IC50 (Gi2 BRET, pH 6.5)” value is 0.036 µg/ml and 0.237 nM; the “IC50 (Gi2 BRET, pH 7.4)” value is 0.006 µg/ml and 0.039 nM.
As for B7, the “IC50 (Gi2 BRET, pH 6.5)” value is 0.031 µg/ml and 0.208 nM; the “IC50 (Gi2 BRET, pH 7.4)” value is 0.017 µg/ml and 0.115 nM.
As for B8, the “IC50 (Gi2 BRET, pH 6.5)” value was 0.014 µg/ml and 0.095 nM; the “IC50 (Gi2 BRET, pH 7.4)” value is 0.004 µg/ml and 0.026 nM.

The target of another experiment is T1, human CCR8. Kind of experiment: cell-based or functional assay. The source holds these as a separate data set.
B6: the “hCCL1 (100 nM) residual response, Protocol #2, mAb 0.08 µg/mL” value turned out to be 99%; the “hCCL1 (100 nM) residual response, Protocol #2, mAb 0.4 µg/mL” value came to 102%; the “hCCL1 (100 nM) residual response, Protocol #2, mAb 10 µg/mL” value worked out at 95%; the “hCCL1 (100 nM) residual response, Protocol #3, mAb 0.05 µg/mL” value worked out at 102%. Besides, the “hCCL1 (100 nM) residual response, Protocol #3, mAb 0.5 µg/mL” value turned out to be 97% and the “hCCL1 (100 nM) residual response, Protocol #3, mAb 5 µg/mL” value came out at 67%.
Regarding B7, the “hCCL1 (100 nM) residual response, Protocol #2, mAb 0.08 µg/mL” value was 99%; the “hCCL1 (100 nM) residual response, Protocol #2, mAb 0.4 µg/mL” value was found to be 85%; the “hCCL1 (100 nM) residual response, Protocol #2, mAb 10 µg/mL” value was 68%; the “hCCL1 (100 nM) residual response, Protocol #3, mAb 0.05 µg/mL” value is 86%. For the same molecule, the “hCCL1 (100 nM) residual response, Protocol #3, mAb 0.5 µg/mL” value worked out at 75% and the “hCCL1 (100 nM) residual response, Protocol #3, mAb 5 µg/mL” value was determined as 48%.
For the molecule B8, the “hCCL1 (100 nM) residual response, Protocol #2, mAb 0.08 µg/mL” value was determined as 93%; the “hCCL1 (100 nM) residual response, Protocol #2, mAb 0.4 µg/mL” value is 89%; the “hCCL1 (100 nM) residual response, Protocol #2, mAb 10 µg/mL” value is 48%; the “hCCL1 (100 nM) residual response, Protocol #3, mAb 0.05 µg/mL” value amounted to 92%. The “hCCL1 (100 nM) residual response, Protocol #3, mAb 0.5 µg/mL” value was 68% and the “hCCL1 (100 nM) residual response, Protocol #3, mAb 5 µg/mL” value came to 50%.

A further experiment deals with pm6 (human, sulfated tyrosines at Y16 and Y17). Kind of experiment: ELISA on coated peptide [cont.]. Here is the method:
(§1) The specific binding properties of antibodies were evaluated by ELISA with coated CCR8 related peptides (500 ng/mL) in carbonate/bicarbonate buffer. Different peptides were used as described in Table 1 (see Example 1). Each anti-CCR8 mAb was tested at 1 μg/mL then diluted at 1/10. After an incubation at room temperature during 90 min, unbound mAbs were removed by washings. […] After washings, 3,3′,5,5′-tetramethylbenzidine (TMB) (Interchim, Montlugon, France) was added for 15 min. Then the optical density (OD) was determined by using a multiplate reader (Tecan, Lyon, France) and correlated with mAb reactivity on the panel of coated peptides.
Take B6: the binding result was “binds”.
Still for that read-out and setting: with B7 the entry was “binds”.
Turning to B8, the binding result was “binds”.

The target of a further experiment is pm8 (human, sulfated tyrosines at Y15, Y16 and Y17). Briefly: ELISA on coated peptide [cont.]. The method, then:
as §1
As for B6, the binding result is listed as “binds”.
For B7, the binding result is given as “binds”.
Same read-out and setting: the value for B8 was “binds”.

For another experiment, the target named is pm3 (human, sulfated tyrosine at Y17). Briefly: ELISA on coated peptide [cont.]. The method, then: as §1
Chain of pm3 (human, sulfated tyrosine at Y17) (peptide, as listed by the source): as above
For orientation: An ELISA detects its analyte on a solid surface through an enzyme-linked reagent.
Consider B6, for which the binding result is on record as “binds”.
As to B7, the binding result is “binds”.
In the case of B8, the binding result was “binds”.

Another experiment addresses pm5 (human, sulfated tyrosines at Y15 and Y17). Briefly: ELISA on coated peptide [cont.]. Here is the method: as §1
Take B6: the binding result is recorded as “binds”.
On the same count and under the same terms, the value for B7 was “binds”; that for B8 was “binds”.

A further experiment deals with T1, human CCR8. Kind of experiment: flow cytometry, hCCR8 transfected CHOK1 cells. The method, then: Briefly, 1·10⁵ cells per well in a 96 well plate were incubated with a dilution of unconjugated anti-CCR8 mAb at 10 μg/mL then diluted at 1/3.33, 4 dilution points (during 30 min at 4° C.). […] To determine EC50 value, 8 concentrations of anti-CCR8 mAb were tested. Unbound antibodies were washed away with PBS (Invitrogen by Thermofisher Scientific, Illkirch-Graffenstaden, France) supplemented by 2% Fetal Bovine Serum (Invitrogen by Thermofisher Scientific, Illkirch-Graffenstaden, France) and 2 mM EDTA (Invitrogen by Thermofisher Scientific, Illkirch-Graffenstaden, France). Subsequently, cells are centrifuged (5 min at 400 g) and bound antibody is detected with F(ab′)₂-Goat anti-Mouse IgG (H+L) Cross-Adsorbed Secondary Antibody, Alexa Fluor 488 (dilution 1/500) (Invitrogen by Thermofisher Scientific, Illkirch-Graffenstaden, France) or with F(ab′)₂-Goat anti-Human IgG Fc Secondary Antibody, PE (Invitrogen by Thermofisher Scientific, Illkirch-Graffenstaden, France) (dilution 1/1000) at 4° C. for 30 min. Detection reagent is washed away and cells are centrifuged (5 min at 400 g) and resuspended in 30 μL PBS. Bound detection antibody is quantified on a MacsQuant16 (Miltenyi, Gladbach, Germany) (B1 or B2 channel, 5000 events per acquisition).
Background: A flow cytometer gives signals particle by particle.
Consider B6, for which the “% positive cells” value amounted to 73.4% and the “MFI fold change to isotype ctrl” value was found to be 6.52 fold.
For B7, in that order: 67.8% and 6.11 fold.
Turning to B8, the “% positive cells” value is 83% and the “MFI fold change to isotype ctrl” value turned out to be 17.6 fold.
